Measured values reported in PMC6854852.

Key:
[1] = system: T1, SAN8-rBraR (unphosphorylated) D96V (Staphylococcus aureus SAN8 (nisin A-resistant mutant of MW2)), ORF:7b46c191; assay: EMSA; details: EMSA: 5 ng DIG-labeled DNA, rBraR (given as 50 mM) in DIG Gel Shift Kit 2nd Generation (Roche) buffer, 6% native PAGE; binding temperature and pH not stated …
T1 sequence: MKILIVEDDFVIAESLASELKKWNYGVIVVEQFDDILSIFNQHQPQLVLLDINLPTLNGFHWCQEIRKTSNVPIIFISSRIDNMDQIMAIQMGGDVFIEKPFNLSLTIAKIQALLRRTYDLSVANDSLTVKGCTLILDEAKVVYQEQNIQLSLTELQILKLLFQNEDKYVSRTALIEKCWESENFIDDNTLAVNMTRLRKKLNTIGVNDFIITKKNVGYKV

[2] = system: T1, SAN8-rBraR (unphosphorylated) D96V (Staphylococcus aureus SAN8 (nisin A-resistant mutant of MW2)), ORF:7b46c191; assay: competition; details: EMSA: 5 ng DIG-labeled DNA, rBraR (given as 50 mM) in DIG Gel Shift Kit 2nd Generation (Roche) buffer, 6% native PAGE; binding temperature and pH not stated …

## ATCACTTAGAAAGCACCATTGCTTTTGTCTAATATGTACGATGAATCTGTATCCTCACTCAAAAATCTACTACGTAGCGATAGCTTTCAACTCTGTAAGGTTCAAACATTGAATTGTAAGTTTAGATAAAGGCTACTACTCCAAACATTATTTAAAATGAAATTAAATACAAAAGGAGTGAGACTATGACAATATTATCAGTGCAACATGTTTCAAAAACATACGG (double strand) [vraDE-F1]
[1]
  binding: binds
[2]
  binding: binds
